Patent US20190016816A1 (APTEVO RESEARCH AND DEVELOPMENT, published 2019)

B1: biotinylated ALG.APV-210 (bispecific antibody)
chain: EVQLLESGGGLVQPGGSLRLSCAASGFTFSHGSMYWVRQAPGKGLEWVSSISSGSGSTYYADSVKGRFTISHDNSKNTLYLQMNSLRAEDTAVYYCARSSYYGSYYSIDYWGQGTLVTVSSGGGGSGGGGSGGGGSGGGGSDIQMTQSPSSLSASVGDRVTITCRASQSISSYLNWYQQKPGKAPKLLIYAASSLQSGVPSRFSGSGSGTDFTLTISSLQPEDFATYYCQQYYDNLPTFGQGTKLEIKEPKSSDKTHTCPPCPAPEAAGAPSVFLFPPKPKDTLMISRTPEVTCVVVDVSHEDPEVKFNWYVDGVEVHNAKTKPREEQYNSTYRVVSVLTVLHQDWLNGKEYKCAVSNKALPAPIEKTISKAKGQPREPQVYTLPPSRDELTKNQVSLTCLVKGFYPSDIAVEWESNGQPENNYKTTPPVLDSDGSFFLYSKLTVDKSRWQQGNVFSCSVMHEALHNHYTQKSLSLSPGSGGGGSGGGGSGGGGSPSEVQLLESGGGLVQPGGSLRLSCAASGFTFSSYAMSWVRQAPGKCLEWVSAISGSGGSTYYADSVKGRFTISRDNSKNTLYLQMNSLRAEDTAVYYCARYYGGYYSAWMDYWGQGTLVTVSSGGGGSGGGGSGGGGSGGGGSDIQMTQSPSSLSASVGDRVTITCRASQSISSFLNWYQQKPGKAPKLLIYAASSLQSGVPSRFSGSGSGTDFTLTISSLQPEDSATYYCQQTYGYLHTFGCGTKLEIKR
notes: also called ALG.APV-210 (biotinylated for FACS detection)
B2: ALG.APV-187 (bispecific antibody)
chain: EVQLLESGGGLVQPGGSLRLSCAASGFTFSHGSMYWVRQAPGKGLEWVSSISSGSGSTYYADSVKGRFTISHDNSKNTLYLQMNSLRAEDTAVYYCARSSYYGSYYSIDYWGQGTLVTVSSGGGGSGGGGSGGGGSGGGGSDIQMTQSPSSLSASVGDRVTITCRASQSISSYLNWYQQKPGKAPKLLIYAASSLQSGVPSRFSGSGSGTDFTLTISSLQPEDFATYYCQQYYDNLPTFGQGTKLEIKSSEPKSSDKTHTCPPCPAPEAAGAPSVFLFPPKPKDTLMISRTPEVTCVVVDVSHEDPEVKFNWYVDGVEVHNAKTKPREEQYNSTYRVVSVLTVLHQDWLNGKEYKCAVSNKALPAPIEKTISKAKGQPREPQVYTLPPSRDELTKNQVSLTCLVKGFYPSDIAVEWESNGQPENNYKTTPPVLDSDGSFFLYSKLTVDKSRWQQGNVFSCSVMHEALHNHYTQKSLSLSPGSGGGGSGGGGSGGGGSPSEVQLLESGGGLVQPGGSLRLSCAASGFTFSSYAMSWVRQAPGKCLEWVSAISGSGGSTYYADSVKGRFTISRDNSKNTLYLQMNSLRAEDTAVYYCARYYGGYYSAWMDYWGQGTLVTVSSGGGGSGGGGSGGGGSGGGGSDIQMTQSPSSLSASVGDRVTITCRASQSISSFLNWYQQKPGKAPKLLIYAASSLQSGVPSRFSGSGSGTDFTLTISSLQPEDSATYYCQQTYGYLHTFGCGTKLEIKR
notes: Optimized ADAPTIR scFv-Fc-scFv homodimer with stabilizing disulfide in the 1210 scFv

How the values were obtained:
[1] = target: T1, cynomolgus CD137 on cells (cynomolgus macaque, UniProt A9YYE7 24-254); test: flow cytometry, normalized percentage of CD8 T cells (gated from CD3-stimulated cynomolgus PBMC) bound by the biotinylated antibody, pooled data of 2 exp, n=6 donors
T1 construct: whole, on cells; also called CHO-K1/cynomolgus CD137 cell line; cynomolgus monkey CD137 on CD3-stimulated primary CD8 T cells
Method: Following 48 h of incubation with or without CD3, human and cynomolgus PBMC were harvested, pooled, recounted and diluted in FACS buffer (PBS+0.5% BSA, 0.05% NaN₃) to a concentration of 5×10⁶ cells/mL. 50 μL (0.25×10⁶ cells) of cell solution was added to a 96-well FACS staining plate (Falcon #351190). Following 10 min of Fc-blocking in RT using Beriglobin (hIgG, 200 μg/mL), cells were washed in FACS buffer and then incubated for 1 h in 4° C. with 100 μL of the biotinylated ALG.APV-210 or negative control. The antibodies were added in a serial dilution starting either at 5 μg/mL titrating down in a 12 step ⅓ dilution down to […] (exp 1) or 1 μg/mL titrating down in a 12 step ½ dilution down to 0.0005 μg/mL (exp 2). […] Cells were analysed for ALG.APV-210 binding using flow cytometry by gating on viable, single cells expressing CD3 and CD8. MFI values (FMO subtracted) from 2 independent experiments as well as normalized pooled data from 2 experiments and EC₅₀-values were determined and plotted using GraphPad Prism 7, non-linear regression log (agonist) vs. normalized response—variable slope, n=6 donors/group.

human 5T4 on cells [2] = target: T2, human 5T4 on cells (human, UniProt Q13641 32-420); test: flow cytometry, CT26-hu5T4^low cells, streptavidin-PE, normalized MFI of 2 pooled experiments
T2 construct: also called TPBG; hu5T4
T2 sequence: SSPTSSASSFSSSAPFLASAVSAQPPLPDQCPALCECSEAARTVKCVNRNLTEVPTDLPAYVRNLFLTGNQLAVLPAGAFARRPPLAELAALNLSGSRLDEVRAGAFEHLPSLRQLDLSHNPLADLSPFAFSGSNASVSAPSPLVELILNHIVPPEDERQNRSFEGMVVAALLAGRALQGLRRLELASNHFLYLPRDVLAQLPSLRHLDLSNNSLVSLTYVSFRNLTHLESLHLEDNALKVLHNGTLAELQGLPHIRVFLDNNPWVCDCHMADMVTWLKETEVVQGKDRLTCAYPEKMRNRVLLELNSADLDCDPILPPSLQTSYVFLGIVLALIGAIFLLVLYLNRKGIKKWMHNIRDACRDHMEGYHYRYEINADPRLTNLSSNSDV
Method: Prior to the FACS staining, all cell lines were characterized for their 5T4 expression levels using a receptor density kit (Quantum Simply Cellular, anti-human IgG, Bangs Laboratories, Inc). Adherent cell lines were cultured according to their supplier's instructions and were harvested from their cell culture flasks using Trypsin/EDTA, counted in R10 medium in a Burker chamber, and diluted in FACS buffer (PBS+0.5% BSA, 0.05% NaN₃) to a concentration of 4×10⁶ cells/mL. 50 μL (0.20×10⁶) of cell solution was added to a 96-well FACS staining plate (Falcon #351190). Cells were incubated for 20 min in 4° C. with 50 μL of the biotinylated ALG.APV-210 (2× final concentration). The antibodies were added in a serial dilution starting at 20 μg/mL titrating down in a 12 step ½ dilution down to 0.010 μg/mL. Following 2× washing with FACS buffer, cells were incubated for 30 min in 4° C. with 100 μL of a secondary antibody (streptavidin-PE, BD #554061, diluted 1/500). […] Cells were analysed for ALG.APV-210 binding using flow cytometry (FACSVerse) by gating on single cells. MFI values (secondary antibody only subtracted) from 1 out of 2 independent experiments, as well as normalized data and EC₅₀-values of pooled data from 2 experiments were determined and plotted using GraphPad Prism 7, non-linear regression log (agonist) vs. normalized response—variable slope.

human 5T4 on cells [3] = target: T2, human 5T4 on cells; test: flow cytometry, CHO-K1 cells expressing human 5T4, labelled anti-human IgG secondary, MFI (mean)
Method: Binding studies were performed by standard flow cytometry-based staining procedures two cell lines expressing 5T4:CHO-K1 cells (obtained from Alligator) transduced with human or cynomolgus macaque 5T4 and SKOV-3 human ovarian adenocarcinoma cells which express (human) 5T4. All labeling and washes were performed in U-bottom 96-well plates in saline buffer with 0.1% BSA and 2 mM EDTA. Cell were plated at approximately 100,000 cells per well and incubated with a range of 100 nM to 0.05 nM concentrations of test molecules in […], for 30 minutes on ice. Cells were washed three times then incubated for another 30 min on ice with fluorescently-labeled secondary polyclonal antibody, F(ab′)² goat anti-human IgG (Jackson ImmunoResearch Laboratories). The cells were then washed twice and the samples acquired in a BD LSRII or a Symphony A3 flow cytometer. The sample files were analyzed using FlowJo software; the mean fluorescence intensity (MFI-mean) or median fluorescence intensity (MFI-median) of the live population of cells in each well was calculated after gating on live cells (forward vs side scatter). Nonlinear regression analysis to determine EC₅₀ values was performed in GraphPad Prism 6® graphing and statistics software.

T1 sequence (A9YYE7 entry or part of it): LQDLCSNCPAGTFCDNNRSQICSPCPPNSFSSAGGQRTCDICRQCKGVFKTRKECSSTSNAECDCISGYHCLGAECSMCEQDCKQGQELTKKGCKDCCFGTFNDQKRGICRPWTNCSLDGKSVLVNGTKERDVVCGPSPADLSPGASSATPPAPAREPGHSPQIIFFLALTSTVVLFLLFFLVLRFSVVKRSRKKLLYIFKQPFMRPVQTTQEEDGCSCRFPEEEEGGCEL

Binder | EC50 [1] [nM] | EC50 (human 5T4 on cells [2]) [nM] | EC50 (human 5T4 on cells [3]) [nM] | Maximum MFI (human 5T4 on cells [3])
B1 | 0.019 | 11 | – | –
B2 | – | – | 5.6 | 13500
